In test [1] the target is αvβ3 integrin, wild type, on mouse lung endothelial cells (WT EC) (mouse) (UniProt P43406). The test is described as follows: flow cytometry, FITC-fibrinogen on WT mouse lung EC, 1 mM MnCl2 against unstimulated cells.
For test [2], the target named is DiYF β3 integrin (αvβ3 with β3 tyrosines 747 and 759 substituted for phenylalanines), on DiYF mouse lung endothelial cells (mouse) (UniProt P43406). Description: flow cytometry, FITC-fibrinogen on DiYF mouse lung EC, 1 mM MnCl2 against unstimulated cells. (In flow cytometry, cells or beads pass a laser one at a time.)
For test [3] the target is unchanged. The test is described as follows: flow cytometry, FITC-fibrinogen on DiYF mouse lung EC, 20 ng/ml VEGF against unstimulated cells.
The target of test [4] is αvβ3 integrin, wild type, on mouse lung endothelial cells (WT EC) (mouse) (UniProt P43406). Description: flow cytometry, FITC-fibrinogen on WT mouse lung EC, 20 ng/ml VEGF against unstimulated cells (printed as 'at least').
Test [5] deals with VEGF receptor-2 on mouse lung endothelial cells (mouse) (UniProt P35918). Description: cell-based or functional assay.
Chain of VEGF receptor-2 on mouse lung endothelial cells (mouse) (P35918 20-1345): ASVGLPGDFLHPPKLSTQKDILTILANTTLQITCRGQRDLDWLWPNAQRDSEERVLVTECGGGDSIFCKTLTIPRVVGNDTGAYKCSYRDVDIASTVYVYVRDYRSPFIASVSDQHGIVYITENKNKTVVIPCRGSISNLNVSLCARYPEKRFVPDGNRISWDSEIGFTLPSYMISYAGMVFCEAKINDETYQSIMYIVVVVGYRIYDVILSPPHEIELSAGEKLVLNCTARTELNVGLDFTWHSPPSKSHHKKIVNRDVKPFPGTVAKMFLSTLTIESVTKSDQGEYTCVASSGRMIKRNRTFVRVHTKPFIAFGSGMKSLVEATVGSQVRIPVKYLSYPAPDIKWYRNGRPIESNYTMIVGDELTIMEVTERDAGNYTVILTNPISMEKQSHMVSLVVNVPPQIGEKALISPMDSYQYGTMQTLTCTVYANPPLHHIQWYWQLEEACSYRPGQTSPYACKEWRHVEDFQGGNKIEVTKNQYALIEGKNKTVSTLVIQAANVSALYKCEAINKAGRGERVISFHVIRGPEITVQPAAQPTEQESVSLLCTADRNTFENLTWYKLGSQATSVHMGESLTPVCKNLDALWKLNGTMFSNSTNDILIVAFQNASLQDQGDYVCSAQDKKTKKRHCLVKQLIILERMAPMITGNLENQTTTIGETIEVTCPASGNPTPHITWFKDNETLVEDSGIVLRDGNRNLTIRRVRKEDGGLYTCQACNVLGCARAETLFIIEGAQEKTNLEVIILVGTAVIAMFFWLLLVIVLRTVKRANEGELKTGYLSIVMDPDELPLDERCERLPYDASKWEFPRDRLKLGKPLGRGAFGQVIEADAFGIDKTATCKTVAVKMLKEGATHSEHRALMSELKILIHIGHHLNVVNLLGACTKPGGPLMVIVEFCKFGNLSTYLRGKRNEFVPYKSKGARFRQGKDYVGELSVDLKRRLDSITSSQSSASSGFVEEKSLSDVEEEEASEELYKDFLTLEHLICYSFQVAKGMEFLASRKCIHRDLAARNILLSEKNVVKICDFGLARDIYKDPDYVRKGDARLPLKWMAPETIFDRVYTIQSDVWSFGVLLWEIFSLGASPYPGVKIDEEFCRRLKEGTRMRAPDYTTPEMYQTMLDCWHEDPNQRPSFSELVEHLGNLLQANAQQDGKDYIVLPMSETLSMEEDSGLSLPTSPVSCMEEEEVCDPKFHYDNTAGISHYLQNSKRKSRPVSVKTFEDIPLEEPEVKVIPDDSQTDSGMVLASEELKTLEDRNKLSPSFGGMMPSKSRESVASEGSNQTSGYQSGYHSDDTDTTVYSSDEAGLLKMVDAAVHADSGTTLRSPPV
For test [6], the target named is αvβ3 integrin on human endothelial cells (HUVEC; vasculature of human prostate tissue) (human) (UniProt P06756). Description: flow cytometry, WOW-1 Fab on HUVEC, VEGF-A165 against resting cells.
Test [7] deals with αvβ3 integrin, wild type, on mouse lung endothelial cells (WT EC) (mouse) (UniProt P43406). The test is described as follows: flow cytometry, WOW-1 Fab on WT mouse lung EC, 1 mM MnCl2 against unstimulated cells.
The target in test [8] is DiYF β3 integrin (αvβ3 with β3 tyrosines 747 and 759 substituted for phenylalanines), on DiYF mouse lung endothelial cells (mouse) (UniProt P43406). The test is described as follows: flow cytometry, WOW-1 Fab on DiYF mouse lung EC, 1 mM MnCl2 against unstimulated cells.
Test [9] concerns the target αvβ3 integrin, wild type, on mouse lung endothelial cells (WT EC) (mouse) (UniProt P43406). The test is described as follows: flow cytometry, WOW-1 Fab on WT mouse lung EC, 20 ng/ml VEGF against unstimulated cells.
Test [10] deals with DiYF β3 integrin (αvβ3 with β3 tyrosines 747 and 759 substituted for phenylalanines), on DiYF mouse lung endothelial cells (mouse) (UniProt P43406). The test is described as follows: flow cytometry, WOW-1 Fab on DiYF mouse lung EC, 20 ng/ml VEGF against unstimulated cells.
In test [11] the target is αvβ3 integrin on human endothelial cells (HUVEC; vasculature of human prostate tissue) (human) (UniProt P06756). The test is described as follows: immunohistochemistry, WOW-1 staining density, prostate carcinoma against normal prostate tissue.
Test [12] deals with DiYF β3 integrin (αvβ3 with β3 tyrosines 747 and 759 substituted for phenylalanines), on DiYF mouse lung endothelial cells (mouse) (UniProt P43406). The test is described as follows: cell-based or functional assay.
For test [13], the target named is VEGFR-2 on human endothelial cells (HUVEC; vasculature of human prostate tissue) (human, UniProt P35968 20-1356). The test is described as follows: cell-based or functional assay.
Chain of VEGFR-2 on human endothelial cells (HUVEC; vasculature of human prostate tissue) (P35968 20-1356): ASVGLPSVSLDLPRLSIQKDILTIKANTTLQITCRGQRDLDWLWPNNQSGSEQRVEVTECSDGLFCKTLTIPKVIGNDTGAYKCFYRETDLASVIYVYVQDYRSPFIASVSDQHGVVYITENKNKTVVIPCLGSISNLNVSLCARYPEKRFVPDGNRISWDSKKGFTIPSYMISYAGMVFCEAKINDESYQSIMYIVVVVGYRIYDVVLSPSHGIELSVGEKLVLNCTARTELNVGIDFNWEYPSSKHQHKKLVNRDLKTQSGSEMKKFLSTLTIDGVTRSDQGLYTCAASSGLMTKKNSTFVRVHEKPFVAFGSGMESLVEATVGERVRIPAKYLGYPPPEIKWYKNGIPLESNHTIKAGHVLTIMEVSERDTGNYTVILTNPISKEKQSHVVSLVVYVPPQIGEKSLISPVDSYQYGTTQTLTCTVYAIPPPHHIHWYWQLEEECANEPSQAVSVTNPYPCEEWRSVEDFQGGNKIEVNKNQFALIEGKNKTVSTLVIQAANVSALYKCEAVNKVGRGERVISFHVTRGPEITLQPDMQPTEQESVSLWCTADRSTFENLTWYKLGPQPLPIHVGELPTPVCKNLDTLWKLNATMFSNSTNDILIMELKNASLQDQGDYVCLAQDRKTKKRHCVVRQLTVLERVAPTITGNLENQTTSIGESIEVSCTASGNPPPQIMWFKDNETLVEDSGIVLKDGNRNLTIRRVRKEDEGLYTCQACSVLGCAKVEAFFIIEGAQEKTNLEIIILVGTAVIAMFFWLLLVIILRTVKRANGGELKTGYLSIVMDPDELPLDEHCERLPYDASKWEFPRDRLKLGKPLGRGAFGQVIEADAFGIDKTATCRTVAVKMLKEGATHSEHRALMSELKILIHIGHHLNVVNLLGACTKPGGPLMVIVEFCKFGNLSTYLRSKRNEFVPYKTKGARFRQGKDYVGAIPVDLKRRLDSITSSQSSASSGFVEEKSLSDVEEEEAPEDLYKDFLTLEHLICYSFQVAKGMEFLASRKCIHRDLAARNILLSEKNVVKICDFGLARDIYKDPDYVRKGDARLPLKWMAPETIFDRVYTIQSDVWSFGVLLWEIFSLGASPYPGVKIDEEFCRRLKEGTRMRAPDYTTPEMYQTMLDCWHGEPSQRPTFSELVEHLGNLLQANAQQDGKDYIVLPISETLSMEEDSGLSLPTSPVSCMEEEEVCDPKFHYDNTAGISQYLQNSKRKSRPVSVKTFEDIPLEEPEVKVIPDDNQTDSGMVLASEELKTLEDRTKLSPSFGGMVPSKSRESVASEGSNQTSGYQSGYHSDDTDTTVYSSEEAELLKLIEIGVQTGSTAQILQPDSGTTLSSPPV

As for “Fluorescein isothiocyanate (FITC)-labeled fibrinogen (ligand)”, the fold increase of binding in [1] is greater than 40 fold; in test [2] it was 17 fold; in test [3], 3 fold; in [4], 6 fold.
For VEGF-A165 (ligand), in test [5], the VEGFR-2 phosphorylation in DiYF EC (immunoprecipitation, anti-phosphotyrosine blot) was found to be 2.5 fold and the VEGFR-2 phosphorylation in WT EC (immunoprecipitation, anti-phosphotyrosine blot) was found to be 6 fold.
WOW-1 Fab: the fold increase of binding in test [6] came to 6 fold; in [7], 30 fold; in test [8], 14 fold; in test [9], 9 fold; in [10] it was 3.5 fold. This molecule also returned a fold increase of WOW-1 density in [11] of 2.7 fold.
In test [12], vitronectin (ligand) returned a fold decrease in adhesion of DiYF EC to vitronectin-coated wells, against WT EC of 2 fold and a fold decrease in spreading of DiYF EC on vitronectin-coated wells, against WT EC of 4 fold.

B1: αvβ3 integrin on human endothelial cells (HUVEC; vasculature of human prostate tissue) (receptor)
chain 1: FNLDVDSPAEYSGPEGSYFGFAVDFFVPSASSRMFLLVGAPKANTTQPGIVEGGQVLKCDWSSTRRCQPIEFDATGNRDYAKDDPLEFKSHQWFGASVRSKQDKILACAPLYHWRTEMKQEREPVGTCFLQDGTKTVEYAPCRSQDIDADGQGFCQGGFSIDFTKADRVLLGGPGSFYWQGQLISDQVAEIVSKYDPNVYSIKYNNQLATRTAQAIFDDSYLGYSVAVGDFNGDGIDDFVSGVPRAARTLGMVYIYDGKNMSSLYNFTGEQMAAYFGFSVAATDINGDDYADVFIGAPLFMDRGSDGKLQEVGQVSVSLQRASGDFQTTKLNGFEVFARFGSAIAPLGDLDQDGFNDIAIAAPYGGEDKKGIVYIFNGRSTGLNAVPSQILEGQWAARSMPPSFGYSMKGATDIDKNGYPDLIVGAFGVDRAILYRARPVITVNAGLEVYPSILNQDNKTCSLPGTALKVSCFNVRFCLKADGKGVLPRKLNFQVELLLDKLKQKGAIRRALFLYSRSPSHSKNMTISRGGLMQCEELIAYLRDESEFRDKLTPITIFMEYRLDYRTAADTTGLQPILNQFTPANISRQAHILLDCGEDNVCKPKLEVSVDSDQKKIYIGDDNPLTLIVKAQNQGEGAYEAELIVSIPLQADFIGVVRNNEALARLSCAFKTENQTRQVVCDLGNPMKAGTQLLAGLRFSVHQQSEMDTSVKFDLQIQSSNLFDKVSPVVSHKVDLAVLAAVEIRGVSSPDHVFLPIPNWEHKENPETEEDVGPVVQHIYELRNNGPSSFSKAMLHLQWPYKYNNNTLLYILHYDIDGPMNCTSDMEINPLRIKISSLQTTEKNDTVAGQGERDHLITKRDLALSEGDIHTLGCGVAQCLKIVCQVGRLDRGKSAILYVKSLLWTETFMNKENQNHSYSLKSSASFNVIEFPYKNLPIEDITNSTLVTTNVTWGIQPAPMPVPVWVIILAVLAGLLLLAVLVFVMYRMGFFKRVRPPQEEQEREQLQPHENGEGNSET
chain 2: GPNICTTRGVSSCQQCLAVSPMCAWCSDEALPLGSPRCDLKENLLKDNCAPESIEFPVSEARVLEDRPLSDKGSGDSSQVTQVSPQRIALRLRPDDSKNFSIQVRQVEDYPVDIYYLMDLSYSMKDDLWSIQNLGTKLATQMRKLTSNLRIGFGAFVDKPVSPYMYISPPEALENPCYDMKTTCLPMFGYKHVLTLTDQVTRFNEEVKKQSVSRNRDAPEGGFDAIMQATVCDEKIGWRNDASHLLVFTTDAKTHIALDGRLAGIVQPNDGQCHVGSDNHYSASTTMDYPSLGLMTEKLSQKNINLIFAVTENVVNLYQNYSELIPGTTVGVLSMDSSNVLQLIVDAYGKIRSKVELEVRDLPEELSLSFNATCLNNEVIPGLKSCMGLKIGDTVSFSIEAKVRGCPQEKEKSFTIKPVGFKDSLIVQVTFDCDCACQAQAEPNSHRCNNGNGTFECGVCRCGPGWLGSQCECSEEDYRPSQQDECSPREGQPVCSQRGECLCGQCVCHSSDFGKITGKYCECDDFSCVRYKGEMCSGHGQCSCGDCLCDSDWTGYYCNCTTRTDTCMSSNGLLCSGRGKCECGSCVCIQPGSYGDTCEKCPTCPDACTFKKECVECKKFDRGALHDENTCNRYCRDEIESVKELKDTGKDAVNCTYKNEDDCVVRFQYYEDSSGKSILYVVEEPECPKGPDILVVLLSVMGAILLIGLAALLIWKLLITIHDRKEFAKFEEERARAKWDTANNPLYKEATSTFTNITYRGT
Take B1: the “fold decrease in VEGFR-2 phosphorylation in response to VEGF in HUVEC after β3 siRNA” value in test [13] was roughly 3 fold.

The record behind these values is patent US20140135264A1 (CLEVELAND CLINIC FOUNDATION, published 2014).
